The values that follow come from paper PMC5383521 (Journal of molecular recognition : JMR, 2016).

The target in assay [1] is murine monoclonal antibody LA-2, wild type (mouse). Nature of the assay: SPR. In general terms: In SPR one partner is held on a chip, and binding of the other changes the refractive index at the surface.
The target in assay [2] is Outer surface protein A (OspA) from Borrelia burgdorferi B31, wild type (Borrelia burgdorferi B31, UniProt P0CL66). Nature of the assay: SPR.

Changes are numbered by the printed parent chain. Names and notes keep the numbering of the source.

“OspA (B. burgdorferi B31) A215K (from UniProt P0CL66 17-273) (natural protein)”: in assay [1], the fold increase of affinity against wild type OspA was found to be 7.5 fold.

B1: murine monoclonal antibody LA-2, wild type (antibody, V domains shown)
VH: QIQLVQSGPELKKPGETVKISCKASGYTFTDYSMYWVKQAPGKGLKRMGWINTETGEPTYADDFKGRFALSLDTSASTAYLHISNLKNEDTATYFCARGLDSWGQGTSVTVSS
VL: DIQMTQSPSSLSATLGGKVTITCKASQDINKYIAWYQHKPGKGPRLLIHYTSTLQPGNPSRFSGSGSGRDYSFSISNLEAEDIAIYYCLQYDNLQRTFGGGTKVEIK
Take B1: the binding result in assay [2] is recorded as “binds”.

B2: LA-2 H49A-Light (antibody, V domains shown)
VH: B1 VH
VL: B1 VL with H49A
With B2, the binding result in assay [2] is “no binding”.
